{
  "source": "patent US20240192201",
  "about": "“BRAIN NATRIURETIC PEPTIDE APTAMER FLUORESCENCE DETECTION DEVICE BASED ON SMART PHONE AND SENSING METHOD OF SAME” (TianJin University, published 2024)",
  "molecular_target": "BNP (brain natriuretic peptide) (UniProt P16860 P16860:103-134)",
  "sequence (P16860 103-134, one chain of several)": "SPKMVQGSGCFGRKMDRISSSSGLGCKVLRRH",
  "test": "FRET recovery from carboxylated graphene oxide quencher (40 ug/ml), 100 nmol/L aptamer, pH 7.2-7.4, room temperature, 35 min",
  "details": "label: 5'-FAM",
  "from_the_text": "The signal response relationship between BNP concentration and fluorescence intensity obtained by detecting BNP in the present invention, its specific detection steps are as follows: [0080] (1) Blank control experiment: individually detect the fluorescence intensity of 100 nmol/L aptamer solution, and set the excitation wavelength as 492 nm, the emission wavelength as 519 nm, and the emission spectrum detection range as 505-610 nm, then use the obtained results as controls. [0081] (2) Mix 100 nmol/L of aptamer solution with 40 ug/ml of carboxylated graphene oxide solution by equal volume, and control the pH value of the solution at 7.2-7.4, and then leave it at room temperature for about 20 min. Then add BNP solution having a series of concentration gradients, respectively, leave it at room temperature for about 35 min, next take out an appropriate amount of mixed solution for fluorescence detection, and record fluorescence spectra at different concentrations. […] With the increase of the BNP concentration, the fluorescence intensity of the solution gradually increases. [0082]",
  "data": [
    {"binder": "FAM-labelled BNP aptamer (ssDNA) DNA: TTTTTTTATACGGGAGCCAACACCACCTCTCACATTATATTGTGAATACTTCGTGCTGTTTAGAGCAGGTGTGACGGAT", "values": [
      {"measurement": "binding result", "result": "binds"}
    ]}
  ]
}
